Measured values taken from the supplement of paper PMC7877785.
± gives the uncertainty stated by the source.

Test: self-splicing fitness, log relative to wild type (ln ratio); higher = more splicing; Tetrahymena group I intron in knt gene, E. coli kanamycin selection, DiMSum; sequences stand for … in CUCUCU…GGAGGGAAAAGUUAUCAGGCAUGCACCUGGUAGCUAGUCUUUAAACCAAUAGAUUGCAUCGGUUUAAAAGGCAAGACCGUCAAAUUGCGGGAAAGGGGUCAACAGCCGUUCAGUACCAAGUCUCAGGGGAAACUUUGAGAUGGCCUUGCAAAGGGUAUGGUAAUAAGCUGACGGACAUGGUCCUAACCACGCAGCCAAGUCCUAAGUCAACAGAUCUUCUGUUGAUAUGGAUGCAGUUCACAGACUAAAUGUCGGUCGGGGAAGAUGUAUUCUUCUCAUAAGAUAUAGUCGGACCUCUCCUUAAUGGGAGCUAGCGGAUGAAGUGAUGCAACACUGGAGCCGCUGGGAACUAAUUUGUAUGCGAAAGUAUAUUGAUUAGUUUUGGAGUACUCGUGGUCG
Method in brief: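 Library with all eight P1ex-region intron nucleotides randomised, intron inside the knt kanamycin-resistance gene on pET-22b(+), in E. coli BL21(DE3). Cells grew overnight at 37°C or 30°C on LB agar with or without 25 μg/mL kanamycin (plus 100 μg/mL carbenicillin, 50 μM IPTG, 0.2% rhamnose), in six replicate transformations. Pooled colonies were amplicon-sequenced on Illumina HiSeq 2500. DiMSum fitness is the error-weighted combination of wild-type-normalised replicate fold changes, kanamycin versus none.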

AGUUAGCAAUAUUACGUGUC
self-splicing fitness (ln) (30 °C): -2.09 ± 0.33 | self-splicing fitness (ln) (37 °C): -1.42 ± 0.36

UAAAAGCAAUAUUACGCCUU
self-splicing fitness (ln) (30 °C): -1.53 ± 0.12 | self-splicing fitness (ln) (37 °C): -0.42 ± 0.12

UCCUAGCAAUAUUACGCCGA
self-splicing fitness (ln) (30 °C): -0.215 ± 0.11 | self-splicing fitness (ln) (37 °C): 0.0045 ± 0.11

CCAGAGCAAUAUUACGGGAU
self-splicing fitness (ln) (30 °C): -4.38 ± 0.3 | self-splicing fitness (ln) (37 °C): -2.48 ± 0.18

UUUUAGCAAUAUUACGCGUA
self-splicing fitness (ln) (30 °C): -1.57 ± 0.13 | self-splicing fitness (ln) (37 °C): -1.22 ± 0.12

AGAGAGCAAUAUUACGCAGA
self-splicing fitness (ln) (30 °C): -1.67 ± 0.22

UCAUAGCAAUAUUACGAAUG
self-splicing fitness (ln) (30 °C): -2.7 ± 0.16 | self-splicing fitness (ln) (37 °C): -1.83 ± 0.16

GACGAGCAAUAUUACGCUGC
self-splicing fitness (ln) (37 °C): -2.49 ± 0.49

AUCAAGCAAUAUUACGGGAC
self-splicing fitness (ln) (30 °C): -2.23 ± 0.081 | self-splicing fitness (ln) (37 °C): -1.11 ± 0.1

UAAAAGCAAUAUUACGGGCA
self-splicing fitness (ln) (30 °C): -0.521 ± 0.094 | self-splicing fitness (ln) (37 °C): 0.0848 ± 0.1

GGUAAGCAAUAUUACGUUAA
self-splicing fitness (ln) (30 °C): -2.57 ± 0.29 | self-splicing fitness (ln) (37 °C): -1.37 ± 0.2

CGGAAGCAAUAUUACGCAAC
self-splicing fitness (ln) (30 °C): -1.88 ± 0.29

AUCAAGCAAUAUUACGUGUC
self-splicing fitness (ln) (30 °C): -3.9 ± 0.15 | self-splicing fitness (ln) (37 °C): -2.6 ± 0.16

AUGGAGCAAUAUUACGGCCG
self-splicing fitness (ln) (30 °C): -1.27 ± 0.11 | self-splicing fitness (ln) (37 °C): -0.481 ± 0.19

CAGAAGCAAUAUUACGACAA
self-splicing fitness (ln) (30 °C): -2.84 ± 0.36 | self-splicing fitness (ln) (37 °C): -1.88 ± 0.31

CGUGAGCAAUAUUACGGGUU
self-splicing fitness (ln) (30 °C): -3.99 ± 0.46 | self-splicing fitness (ln) (37 °C): -2.65 ± 0.29

GUCUAGCAAUAUUACGGGUU
self-splicing fitness (ln) (30 °C): -1.92 ± 0.082 | self-splicing fitness (ln) (37 °C): -0.234 ± 0.083

GGCCAGCAAUAUUACGGGCG
self-splicing fitness (ln) (30 °C): -2.13 ± 0.2 | self-splicing fitness (ln) (37 °C): -2.02 ± 0.26

CGCUAGCAAUAUUACGUGUG
self-splicing fitness (ln) (30 °C): -4.15 ± 0.27 | self-splicing fitness (ln) (37 °C): -3.12 ± 0.19

GCGCAGCAAUAUUACGACUU
self-splicing fitness (ln) (30 °C): -0.0557 ± 0.087 | self-splicing fitness (ln) (37 °C): 0.099 ± 0.093

CUAGAGCAAUAUUACGUAUU
self-splicing fitness (ln) (30 °C): -3.42 ± 0.17 | self-splicing fitness (ln) (37 °C): -3.03 ± 0.26

AGCGAGCAAUAUUACGUGCA
self-splicing fitness (ln) (30 °C): -1.78 ± 0.14 | self-splicing fitness (ln) (37 °C): -1.21 ± 0.14

CAGAAGCAAUAUUACGAAAC
self-splicing fitness (ln) (30 °C): -4.4 ± 0.46 | self-splicing fitness (ln) (37 °C): -2.18 ± 0.32

CAGCAGCAAUAUUACGUACU
self-splicing fitness (ln) (30 °C): -2.54 ± 0.24 | self-splicing fitness (ln) (37 °C): -2.5 ± 0.32

UAAAAGCAAUAUUACGCACU
self-splicing fitness (ln) (30 °C): -0.274 ± 0.056 | self-splicing fitness (ln) (37 °C): 0.0996 ± 0.068

UCGGAGCAAUAUUACGGGCC
self-splicing fitness (ln) (30 °C): -4.15 ± 0.39 | self-splicing fitness (ln) (37 °C): -3.6 ± 0.33

GAGUAGCAAUAUUACGUUAU
self-splicing fitness (ln) (30 °C): -2.9 ± 0.23 | self-splicing fitness (ln) (37 °C): -2.12 ± 0.21

GGAUAGCAAUAUUACGCAUA
self-splicing fitness (ln) (30 °C): -1.88 ± 0.45 | self-splicing fitness (ln) (37 °C): -2.04 ± 0.39

UCCAAGCAAUAUUACGAACA
self-splicing fitness (ln) (30 °C): -1.87 ± 0.14 | self-splicing fitness (ln) (37 °C): -0.969 ± 0.13

UGGCAGCAAUAUUACGCGGC
self-splicing fitness (ln) (30 °C): -4.17 ± 0.29 | self-splicing fitness (ln) (37 °C): -2.23 ± 0.26

GUCCAGCAAUAUUACGAGAA
self-splicing fitness (ln) (30 °C): -0.724 ± 0.14 | self-splicing fitness (ln) (37 °C): -0.763 ± 0.14

UCUAAGCAAUAUUACGCAAA
self-splicing fitness (ln) (30 °C): -3.34 ± 0.21 | self-splicing fitness (ln) (37 °C): -2.97 ± 0.2

GCCAAGCAAUAUUACGUAGU
self-splicing fitness (ln) (30 °C): -0.579 ± 0.051 | self-splicing fitness (ln) (37 °C): -0.395 ± 0.06

CAGUAGCAAUAUUACGCAUA
self-splicing fitness (ln) (30 °C): -2.04 ± 0.2 | self-splicing fitness (ln) (37 °C): -1.59 ± 0.21

UGACAGCAAUAUUACGCUUG
self-splicing fitness (ln) (30 °C): -0.879 ± 0.074 | self-splicing fitness (ln) (37 °C): -0.702 ± 0.11

CCUAAGCAAUAUUACGUGUC
self-splicing fitness (ln) (30 °C): -3.86 ± 0.27 | self-splicing fitness (ln) (37 °C): -1.54 ± 0.12

CUAGAGCAAUAUUACGGCCU
self-splicing fitness (ln) (30 °C): -2.72 ± 0.44 | self-splicing fitness (ln) (37 °C): -1.69 ± 0.44

CGGGAGCAAUAUUACGGUUC
self-splicing fitness (ln) (30 °C): -3.39 ± 0.25 | self-splicing fitness (ln) (37 °C): -1.95 ± 0.35

CAACAGCAAUAUUACGGUUU
self-splicing fitness (ln) (30 °C): -0.644 ± 0.045 | self-splicing fitness (ln) (37 °C): 0.183 ± 0.056

CCGAAGCAAUAUUACGAUCC
self-splicing fitness (ln) (30 °C): -3.91 ± 0.46 | self-splicing fitness (ln) (37 °C): -2.46 ± 0.45

CCUAAGCAAUAUUACGAGGG
self-splicing fitness (ln) (30 °C): -3.2 ± 0.17 | self-splicing fitness (ln) (37 °C): -3 ± 0.35

UCCUAGCAAUAUUACGAUUC
self-splicing fitness (ln) (37 °C): -2.2 ± 0.29

AAAUAGCAAUAUUACGGCCA
self-splicing fitness (ln) (30 °C): -0.522 ± 0.15 | self-splicing fitness (ln) (37 °C): -0.523 ± 0.18

AGAUAGCAAUAUUACGAAAU
self-splicing fitness (ln) (30 °C): -2.87 ± 0.13 | self-splicing fitness (ln) (37 °C): -0.838 ± 0.12

UGUCAGCAAUAUUACGCGGG
self-splicing fitness (ln) (30 °C): -3.8 ± 0.3 | self-splicing fitness (ln) (37 °C): -1.73 ± 0.26

GGAUAGCAAUAUUACGACUC
self-splicing fitness (ln) (30 °C): -0.498 ± 0.16 | self-splicing fitness (ln) (37 °C): 0.298 ± 0.23

GGCGAGCAAUAUUACGUGCA
self-splicing fitness (ln) (30 °C): -0.905 ± 0.085 | self-splicing fitness (ln) (37 °C): -0.435 ± 0.098

UACGAGCAAUAUUACGAUGG
self-splicing fitness (ln) (30 °C): -2.85 ± 0.22 | self-splicing fitness (ln) (37 °C): -2.29 ± 0.24
